Source: the DeepSol protein solubility set

Test: soluble on expression in E. coli; label from the status in PepcDB or PDB records

Sequence	soluble on expression in E. coli
MGSDKIHHHHHHMYLVEVFFTYRQPQKLPISNISYLINQIIEQWRYNGQIIGREIPLFVAVQNNEEGFALRVTCPEQQSLLPTFNNIQVDKALKQAKSAGIFFDSFQIIADDLNSDITYSKEVATWQVLYTTYLQSCSPLHSGDNLLPIPLYKQFKNIPHLSMDIIKWQENWQACDQLQMNGSILEQQALYEISDFNSHLTKHGYYLTQEIEKHTGIPTFYYLYRIGGDDLQSEQQRLCPNCQQKWHLDKPLFNLFHFKCDHCRLVSNLSWHWQ	not soluble
MGSDKIHHHHHHMYNNINYKVLWGHSEYDGSFEIMEFRQLSYFISVAKYLSFTKAAEEHHIAQTAISQQISTLEKQLNVKLFVRNNRAVELTDAGRVLLKEADLITSRVVEAERKTKQAALGFEGSLNVGILGSSEKNFLPVILKRFHKLYPKIGINLSRNSYKKLADDMKGGHLDITFIFPYELNDISHVKYRKLFDYEICLVVNKEHRLARYKKIDVKEIKNEKFIVVGKEEAPSTVKQMRKNCMGDGFKLNVVAECKNLDTMLIMVEAGMGVALVPTCVANDSNNNISYIELENSKQIVEIGVAWMEGNMNPTLKLFLGVLSDLYWDN	not soluble
MGSDKIHHHHHHMYVAVKGGEKAIRAAHALQEQKRRGDGRLPELSVEQIGDQLSLAVDRVMTEGGIADRELAALALKQASGDNIEAIFLLRAYRTTLPRLAVSEPINTAEMRLERRISAVYKDIPGGQLLGPTYDYTHRLLDFTLLANGEAPSVQQADGEAEPTPHVFSLLTQQGLAKTEEDRGTPPDDITRTPPVYPCSRSSRLQQLMRGDEGYLLALAYSTQRGYGRNHPFAGEIRSGYVQVEIVPEELGFSVNIGELLLTECEMVNGFVAPQEEPPHFTRGYGLTFGMSERKAMAMALVDRALQAPDYDEEIAGPAQDEEFVLAHADNVEAAGFVSHLKLPHYVDFQAELALLKRLQRENERG	not soluble
MGSDKIHHHHHHNGPIVKGSKNYITKKENLEHFNDISMSGSANIIYQQDSSSRIEIYGSDNIVELLETKVNGKTLNIKFKKNVNIIDKGKLEIKVFSPDLNGLTLNGSGGILFANGIHTEGDLKVTINGSGNLGGSTFDTGHLAISIHGSGDVRLKQIDSKTCSASISGSGNITLDGMTGAAKYNISGSGNIKAADLEATDVYAGISGSGNISCFVNGKLGGHVSGSGNVAYKGNPQAIDFPHKKLRKLD	not soluble
MGSDKIHHHHHHNRASAQTVSEKDATSTQAPVFLTYTVTKENETVEIVGQVTADTKKVTSKVSGDVLEIYVEEGDVVQVGQKIAKIDDTDYQISYLSALNSYKTSPTEINRLNLEKAKENLENTTVVSPVSGVVQAVNVDVGDRVSVGTSIVTIVETDTLRVEGSISEYDLKNVKEGMKAVFTFEQLGLTLTGKVKRISPVAETSGGVTVIPVEFSFDQTPPSLVIPGLTCDVEIIIKEATSSFFIPKEAVRQDQNGYYVMKQTPQGPQKVYVELGEELNDKIEIKKGVSEGDVLLLIPSQQEIQRLRTRQGLPMFGPGGGRAR	not soluble
MGSDKIHHHHHHQEAKGSADETKVEVQYLDPRDPFEGFNRAMWDFNYLYLDKYILKPVAHGYNDYLPLPVKDGVHNFTTNFDEPSSLVNNILQGKWSWAANAGGRFTVNTSLGILGIFDVAQMMGMERKQDDFSEVLGFYGVPNGPYFMAPFFGPFVTREIASDWVDGLYFPLSELTMWQSALKWGMKSLHNRAEAIDRERLLDNALDPYAFVKDAYFQHVDYKVYDGNVPTTQEDDELLDEFMEELE	not soluble
MGSDKIHHHHHHQLVLAPADAERYAQNSFPEYLELLTLQNDAAVPADIQRNADWLEKAFQKRGFTTQTLTNGDKPLVYAEFGAAKSDRKTILFYMHFDGQPVNPSEWQTPPWQPVLKEKDAAGKWQTLPESRLLKGDINPEWRIFARASADDKGPIVMFLAAMDAMKEKGVEPAVNIKVLLDSEEEKGSPGLTTVMADHLMLLKSDGMVIYDGAMPSSNRPGINFGNRGSIQIDMTVFGANAAAHSGGYGNVIPNPVQNLATLLASMKDADGKVTIPGYYDRVTLSDSDKKQVAETSPPAGSLEKRFGVAQLDKVAGNAAEAVQYPSLDILGIKAGETGKKASNAIPSTATASVNIRTVPETPPDDMYALLRQYIASKGFHIIAGESPTQAEREQYPHLISLHLTAYPSSAYAARTEIDSPLGHWAVATTTAPRGIAPEKNRMMGGTLPMSGAVSVLKVPYVIVPLVNADNNQHSFDENLRLGNYLEGIRTIVAMATTPLS	not soluble
MGSDKIHHHHHHQTDTSDERATDSTTAEVTIIYNDERDPLEGFNRAMWDFNYQFLDKYFYRPVAHGYNDILPRPVKTGVNNFVLNFEEPSSMVNNALQGKWGWAANAGGRFTINTTIGLLGVIDVADMMGLQRKQDEFNEVLGYYGVPNGPYFMAPFLGPYVTRELASDWVDGLYFPLSELTMWQSLAKWGLKNLHRRASAIDQERLVDNALDPYTFVKEAYFQHLDYKVYDGDIPVSTDDDELLDEYMTELD	not soluble
MGSDKIHHHHHHSHKYTAITPGVEWLDTNNEKINAHGGGILYHEGIYYWYGECKSDSTYWNPNVPGWECYRTEAGGVNCYSSKDLLNWKYEGLVLQPEISDTQSDLHPSKVLERPKVIYNDKTKKFVMWLHVDSDDYNKAAAGVAVSDSPTGVFTYLGSMHPNGQISRDMTLFKDDDGKAYHIYSSEQNSTLYISLLSDDYLKPSGTFTRNFAGKFREAPAVFKHNGLYYVISSGCTGWSPNEAEYAVATQILGPWTVKGNPCVGKDADKTFYGQSTHVLPIQGKKDAYIAMFDKWNKTDLIHSTYIWLPIQFREDGSMAIQWLDSWSPDTYEF	not soluble
MGSDKIHHHHHHTIVSCSDDKGEDGYNPNLPVRISELSPQEGGYFDKVILQGENFGNNPKKVRVFFNKKEAIVVGASGDRVLVHVPKLPGDDCKIGMLLNGNTTDTIFAEKHFAYEKNYQLIYVAGQLNSNTETFVEGSLETTTFANSMQHLACDPSGVIYMNHKNQVKVAVLFTLMNLRTTLSFWIMEHLLKTEARLALRIMMTKQRRFTSVRTMLHFFGKLILRIHGLL	not soluble
MGSDKIHHHHHHVACKPKEKPSSATSLTDDALMDTVQRRTFNYFWDAAEPNSGLARERYHMDGEYPAGGPEIVTSGGSGFGIMAILAGIDRGYVSREEGLRRMEKIVGFLEKADRFKGAYPHWWNGETGHVQPFGQKDNGGDLVETAFLMQGLLAVHQYYAEGSAEEKKLAGRIDKLWREVDWNWYRHGGQNVLYWHWSPEYGWEMNFPVHGYNECLIMYILAAASPTHGVPAAVYHEGWAQNGAIVSPHKVEGIELHLRYQGGEAGPLFWAQYSFLGLDPVGLKDEYCPSYFNEMRNLTLVNREYCIRNPKHYKGYGPDCWGLTASYSVDGYAAHGPLERDDRGVISPTAALSSIVYTPDQSLQVMHHLYEMGDKVFGPYGFYDAFSETADWYPKRYLAIDQGPIAVMIENYRTGLLWKLFMSHPDVQNGLKKLGFNVKK	not soluble
MGSDKIHHHHHHVAELVFFSGTMDCGKSTLALQMDHNHRARGRGGVRFSRNDRAGGARISSRLGLETDCVEVLDTTDFWDEVIERRTRGLRVDYLICDEAQFYSPLQVEQLARIVDEIDVDVFAFGISADFRTRLFPGSQRLIELADRVQVLQVEALCWCGRRATHNARTVDGVMVTEGAQVVVGDVDMAGDPASASADHAPVVGYETLCRRHFMRRVTAHGANVMAQQDQLLPFEVDACLWHGSGETRHS	not soluble
MGSDKIHHHHHHVAKQKFKITNWPTYNKALINRGSITFWLDDEAIQAWYESATPSSRGRPQRYSDLAITTVLVIKRVFRLTLRAAQGFIDSIFTLMNVPLRCPDYTSVSRRAKSVNVSFKTFTRGEIAHLVIDSTGLKVFGEGEWKVKKHGQERRRIWRKLHLAVDSNTHEIICADLSLNNVTDSEAFPGLIRQTHRKIRAAAADGAYDTRLCHDELRRKKISALIPPRKGAGYWPGEYADRNRAVANQRMTGSNARWKWTTDYNRRSIAETAMYRVKQLFGGSLTLRDYDGQVAEAMALVRALNKMTKAGMPESVRIA	not soluble
MGSDKIHHHHHHVDALEVHRFLKGKIRTALPVEKVDRETLSLLYTPGVADVARACAEDPEKTYVYTSRWNTVAVVSDGSAVLGLGNIGPYGALPVMEGKAFLFKAFADIDAFPICLSESEEEKIISIVKSLEPSFGGINLEDIGAPKCFRILQRLSEEMNIPVFHDDQQGTAVVVSAAFLNALKLTEKKIEEVKVVVNGIGAAGYNIVKFLLDLGVKNVVAVDRKGILNENDPETCLNEYHLEIARITNPERLSGDLETALEGADFFIGVSRGNILKPEWIKKMSRKPVIFALANPVPEIDPELAREAGAFIVATGRSDHPNQVNNLLAFPGIMKGAVEKRSKITKNMLLSAVEAIARSCEPEPERIIPEAFDMKVHLNVYTAVKGSA	soluble
MGSDKIHHHHHHVLNFDYDLQSVQETRNLARQAKQAQTELAQFNSEQIDKIIRNMVKVAEENAVALAKLAVEETGFGKVEDKVFKNRFASTELYQFIKPMQTIGVIKEDKINKVMEIAEPVGLLMGIVPSTNPTSTTIYKSLIAIKARNGIVFSPHPSALKCTLEAAKLMNDAAVAAGAPANIIGCISKPSMNATNELMKCDEVAMIIATGGSAMVKAAYSAGKPALGVGPGNVPAYIERTADIPKAVRNIIASKTFDNGTICASEQSVVVEECIRNQVMEEFKRQGGYFMTPEETEQVGRKLFNRGHAMNAKMVGRSAADIAAGAGISIPPGTKVLLGEQQGVGEQYPLSYEKLTTVLAFYTVKDWHEACDLCMKLLNNGGVGHSLSIHTENPEMAIKFAEKPVFRILVNTASTHGGVGVSTGLAPAFTLGCGTWGGSATSDNVTPMHLINIKRVAYGIKDVTENGNSSYATGDAQQGGSGGTVSEDRIQALVNEVMSLLKQRGDC	not soluble
MGSDKIHHHHHHVLVLVLFTTVDRTPYKQMPYYTSMMKALDTFHVDVQHKKGDTLRAAWYKVALTPHTFPHPLAGYGLRKKAVSVNDTTFVRTFIFDNAKTRVAYVSLDLLIFPPALKDRVRAELETTYNLQVFLTATHTHSAPGGWEPKIAGRVLAGEYSDEYVALLFNAINECISKAIPRLQKVEQAYIRVSAPEAVQNRLKGADAPKDSFIRGIKFRNKSGEEACLFTFAAHANCLNSDVDYVSADYPGIVSAELEKRKWASFVSYAAGAVGSHAPTFETILDGKLRADTVSSILVEKLQETKAAYAYTNQLYYHRLPLFLRDAHLRVEKDIRIRPWVFNTILGKDIPDIQIIEIGETVLLGMPCDYSGELMPPLEKICADNQSNFMLSGFNGGYIGYITDDACYDWDRGETMDMNWFGPYNAAYLTEVNTVILKKVLTGE	not soluble
MGSDKIHHHHHHVNAIQVPDAPVVLSTASVYPEKTPAAFEIAAELGYDGIEVMVTADPVSQDIDMLRRLSEYHQIPITAIHAPCLIFTQRVWGRDPWIKLIKSKEMAEALGATTVVVHPAFKWQREYAREFESGILKMRDETDVIFAVENMYQVRMRGKEVVPYAPSWNPLDRDYPNVTLDLSHTAMSQSDAMDMARQLGDRLSHVHLADGVGGQNFDEHLIPGRGNQPCAELLEHLANNDYRGQIVLEVNTRKSDRETRLTELAEALAFTRLHFARSVPPEPRSEQPEREQIVVRSVPAPALRVFSVHSDGTVSTD	not soluble
MGSDKIHHHHHHVQQSQIMEDKIISAVRTFASSINSGGKVVADMSELIEVTSQLPLSSFDYWERFIRSEFSTALRESNSPKWKVWSKPKELVTWLDLISWDGYKREKALRALSGAAPNTFFFSLAVRRLNDWVPQVRKAAREKLPEIAKSTVPECVVDALCVALSNWNSWGRIEDADKEVLLKILCEKEIAKSLRSKLIFSASGPMPSLFSQLGRTPILDGQIEEIAKSAIQPSVRAKAYRSLFEGRVIWIEGRKWVWTDIRYCEGRLKPIVGERKLEIETPLIDLLKRSSEDRSSIVRRVSAEILIRELGNLGVKAKEFAERFALDSSQAVSERGDFALKKLDEAERANAS	not soluble
